What follows are sequences tested on Escherichia coli TOP10 (assay: shrunken log2 fold change of peptide-encoding DNA abundance (4.5 h post-induction vs induction); higher = less antimicrobial activity (less host growth inhibition)). Conditions: time post-induction: 4.5 h; library: site-saturation at positions 5, 18, 19, 20.
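Note: peptides expressed intracellularly from a pBAD plasmid library in pooled LB shake-flask culture, induced with 0.3% L-arabinose, DNA abundance read by NGS, three biological replicates, DESeq2 with apeglm shrinkage.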

Sequence | shrunken log2 fold change
RRIRHRPPRLPRPRPRPHIQPRP | -0.701
RRIRYRPPRLPRPRPRPPQWPRP | 0.204
RRIRMRPPRLPRPRPRPYMKPRP | -0.0154
RRIRERPPRLPRPRPRPNSSPRP | -0.494
RRIRWRPPRLPRPRPRPAQEPRP | 0.149
RRIRHRPPRLPRPRPRPTYLPRP | -0.133
RRIRTRPPRLPRPRPRPHHKPRP | -0.614
RRIRWRPPRLPRPRPRPPVYPRP | -0.0994
RRIRFRPPRLPRPRPRPIDQPRP | -0.296
RRIRLRPPRLPRPRPRPQIKPRP | -0.187
RRIRCRPPRLPRPRPRPVHLPRP | 0.0885
RRIRWRPPRLPRPRPRPQMYPRP | -0.168
RRIRVRPPRLPRPRPRPVHWPRP | 0.133
RRIRNRPPRLPRPRPRPRLFPRP | 0.0322
RRIRKRPPRLPRPRPRPFTTPRP | -0.243
RRIRNRPPRLPRPRPRPGEHPRP | 0.00902
RRIRYRPPRLPRPRPRPSEKPRP | -0.116
RRIRWRPPRLPRPRPRPYHWPRP | -0.236
RRIRRRPPRLPRPRPRPQASPRP | 0.0463
RRIRLRPPRLPRPRPRPWQMPRP | 0.123
RRIRYRPPRLPRPRPRPIQGPRP | -0.0804
RRIRMRPPRLPRPRPRPYCYPRP | -0.13
RRIRLRPPRLPRPRPRPGLQPRP | -0.166
RRIRSRPPRLPRPRPRPEWDPRP | 0.365
RRIRSRPPRLPRPRPRPDYLPRP | -0.0749

Sequence | shrunken log2 fold change
RRIRYRPPRLPRPRPRPGKCPRP | -0.264
RRIRRRPPRLPRPRPRPDCLPRP | -0.136
RRIRHRPPRLPRPRPRPETQPRP | -0.137
RRIRYRPPRLPRPRPRPPMMPRP | -0.836
RRIRLRPPRLPRPRPRPMYDPRP | -0.787
RRIRCRPPRLPRPRPRPMPPPRP | 0.914
RRIRSRPPRLPRPRPRPGKTPRP | -0.112
RRIRKRPPRLPRPRPRPGGMPRP | 0.633
RRIRMRPPRLPRPRPRPERVPRP | 2.69
RRIRPRPPRLPRPRPRPFIDPRP | -0.304
RRIRRRPPRLPRPRPRPILYPRP | 0.143
RRIRFRPPRLPRPRPRPWCAPRP | 0.185
RRIRTRPPRLPRPRPRPSLMPRP | 0.0356
RRIRIRPPRLPRPRPRPAQLPRP | -0.177
RRIRGRPPRLPRPRPRPYGQPRP | 0.0682
RRIRFRPPRLPRPRPRPKLPPRP | 0.404
RRIRRRPPRLPRPRPRPKVPPRP | -0.0226
RRIRGRPPRLPRPRPRPGKGPRP | 0.394
RRIRCRPPRLPRPRPRPLNIPRP | -0.379
RRIRYRPPRLPRPRPRPWIVPRP | -0.219
RRIRNRPPRLPRPRPRPGHIPRP | -0.433
RRIRTRPPRLPRPRPRPYCFPRP | -0.301
RRIRDRPPRLPRPRPRPPECPRP | 0.0841
RRIRHRPPRLPRPRPRPTTSPRP | -0.146
RRIRQRPPRLPRPRPRPRLWPRP | 0.504

Sequence | shrunken log2 fold change
RRIRMRPPRLPRPRPRPWCHPRP | 0.0355
RRIRFRPPRLPRPRPRPFMPPRP | -0.469
RRIRHRPPRLPRPRPRPKAAPRP | 0.0902
RRIRNRPPRLPRPRPRPHKPPRP | -0.368
RRIRFRPPRLPRPRPRPHCKPRP | -0.112
RRIRYRPPRLPRPRPRPQRHPRP | -0.48
RRIRYRPPRLPRPRPRPPYHPRP | -0.82
RRIRTRPPRLPRPRPRPSKSPRP | -0.437
RRIRYRPPRLPRPRPRPEYFPRP | -0.744
RRIRRRPPRLPRPRPRPECDPRP | 0.889
RRIRYRPPRLPRPRPRPFAIPRP | -0.158
RRIRNRPPRLPRPRPRPAHNPRP | -0.259
RRIRHRPPRLPRPRPRPLVNPRP | -0.117
RRIRGRPPRLPRPRPRPPIVPRP | 0.0957
RRIRERPPRLPRPRPRPMWWPRP | -0.298
RRIRTRPPRLPRPRPRPELWPRP | -0.142
RRIRWRPPRLPRPRPRPYVGPRP | -0.157
RRIRTRPPRLPRPRPRPSLCPRP | -0.0129
RRIRWRPPRLPRPRPRPPDYPRP | 0.184
RRIRVRPPRLPRPRPRPTCFPRP | -0.155
RRIRARPPRLPRPRPRPKRNPRP | 0.487
RRIRRRPPRLPRPRPRPCQAPRP | 0.0144
RRIRARPPRLPRPRPRPSAFPRP | 0.54
RRIRNRPPRLPRPRPRPMRVPRP | 0.161
RRIRERPPRLPRPRPRPVYKPRP | -0.348

Reference: the supplement of paper PMC9112550, “Optimization of the antimicrobial peptide Bac7 by deep mutational scanning” (BMC Biology, 2022)
